Columns and labels:
Assay in all cases: cell-based or functional assay
[1] = molecular target: HIV-1 Env of isolate MGRM-G-019 (subtype G) (HIV-1)
[2] = molecular target: HIV-1 Env of isolate 92RW009 (subtype A) (HIV-1)
[3] = molecular target: HIV-1 Env of isolate MGRM-D-001 (HIV-1)
[4] = molecular target: HIV-1 NL43 envelope (Env) on pseudovirus (HIV-1)
[5] = molecular target: HIV-1 envelope glycoprotein (Env) of isolate LAVI_C22 (HIV-1)
[6] = molecular target: HIV-1 Env of isolate QH0692.42 (Acute), clade B (HIV-1)
[7] = molecular target: HIV-1 Env of isolate SC422661.8 (Acute), clade B (HIV-1)
[8] = molecular target: HIV-1 Env of pseudovirus MGRM-F1-017 (clade F) (HIV-1)
[9] = molecular target: HIV-1 envelope glycoprotein (Env) of isolate 93IN905 (HIV-1)
[10] = molecular target: HIV-1 envelope glycoprotein (Env) of isolate MGRM-C-019 (HIV-1)
[11] = molecular target: HIV-1 Env of isolate MGRM-Chronic-B-003, clade B (HIV-1)
[12] = molecular target: HIV-1 Env of isolate 92RW020 (clade A pseudovirus) (HIV-1)
[13] = molecular target: HIV-1 MGRM-G-009 Env (pseudovirus) (HIV-1)
[14] = molecular target: HIV-1 MGRM-AE-002 Env (pseudovirus) (HIV-1)
[15] = molecular target: HIV-1 envelope glycoprotein (Env) of isolate MG RM-AG-011 (HIV-1)
[16] = molecular target: HIV-1 Env of pseudovirus MGRM-D-012 (HIV-1)
[17] = molecular target: HIV-1 Env of pseudovirus MGRM-F1-010 (HIV-1)
[18] = molecular target: HIV-1 envelope glycoprotein (Env) of isolate MG RM-AG-013 (HIV-1)
[19] = molecular target: HIV-1 Env of pseudovirus MGRM-D-011 (HIV-1)
[20] = molecular target: HIV-1 Env of isolate MGRM-F1-021 (HIV-1)
[21] = molecular target: HIV-1 Env of isolate MGRM-A-005 (pseudovirus) (HIV-1)
[22] = molecular target: HIV-1 JR-CSF Env E466A (HIV-1 (isolate JR-CSF)) (UniProt P20871)
[23] = molecular target: HIV-1 Env of isolate MGRM-F1-022 (HIV-1)
[24] = molecular target: HIV-1 MGRM-C-027 Env (HIV-1)
[25] = molecular target: HIV-1 MGRM-AG-005 envelope protein (Env) on pseudovirus (HIV-1)
[26] = molecular target: HIV-1 JR-CSF Env N392Q (HIV-1 (isolate JR-CSF)) (UniProt P20871)
[27] = molecular target: HIV-1 Env of isolate MGRM-A-009 (subtype A) (HIV-1)
[28] = molecular target: HIV-1 Env of pseudovirus isolate MGRM-C-025 (clade C) (HIV-1)
[29] = molecular target: HIV-1 Env of isolate MGRM-AG-006 (subtype AG) (HIV-1)
[30] = molecular target: HIV-1 MGRM-C-026 Env (HIV-1)
[31] = molecular target: HIV-1 JRCSF Env (HIV-1) (UniProt P20871)
[32] = molecular target: HIV-1 Env of isolate MGRM-D-008 (pseudovirus) (HIV-1)
[33] = molecular target: HIV-1 Env of pseudovirus isolate MGRM-C-022 (clade C) (HIV-1)
[34] = molecular target: HIV-1 Env of pseudovirus isolate MGRM-C-024 (clade C) (HIV-1)
[35] = molecular target: HIV-1 Env of isolate MGRM-F1-014 (HIV-1)
[36] = molecular target: HIV-1 Env of isolate MGRM-AG-002 (subtype AG) (HIV-1)
[37] = molecular target: HIV-1 MGRM-D-018 Env (HIV-1)
[38] = molecular target: HIV-1 Env of isolate MGRM-D-003 (pseudovirus) (HIV-1)
[39] = molecular target: HIV-1 93IN905 Env (HIV-1)
[40] = molecular target: HIV-1 Env of isolate MGRM-D-011 (pseudovirus) (HIV-1)
[41] = molecular target: HIV-1 Env of pseudovirus isolate MGRM-C-027 (clade C) (HIV-1)

4970_K22 (PGT-144) (antibody) showed an IC50 (µg/mL), pseudovirus neutralization [1] greater than 50 µg/mL, an IC50, pseudovirus neutralization [2] of 0.893 µg/mL and an IC50 (µg/mL), pseudovirus neutralization [3] greater than 50 µg/mL.
With 4E10 (antibody) the neutralization IC50 [4] was 4.95 µg/mL, the IC50 (µg/ml), pseudovirus neutralization [5] was 2.02 µg/mL and the IC50 (µg/ml), pseudovirus neutralization [6] was 12.7 µg/mL. It also gave an IC50 (µg/ml), pseudovirus neutralization [7] of 6.35 µg/mL, an IC50 [8] of 4.92 µg/mL and an IC50 (µg/ml), pseudovirus neutralization [9] of 1.26 µg/mL. For the same substance, the IC50 (µg/ml), pseudovirus neutralization [10] was 3.49 µg/mL, the IC50 (µg/ml), pseudovirus neutralization [11] was 3.5 µg/mL and the IC50 (µg/ml), pseudovirus neutralization [12] was 4.54 µg/mL. The IC50 (µg/ml), pseudovirus neutralization [13] was 1.34 µg/mL and the IC50 (µg/ml), pseudovirus neutralization [14] was 0.55 µg/mL.
PGT-143 (4980_N08) (antibody) was tested, and the IC50 [15] was 0.156 µg/mL, the IC50, pseudovirus neutralization [16] was greater than 50 µg/mL and the IC50, pseudovirus neutralization [17] was greater than 50 µg/mL. It also gave an IC50 [18] greater than 50 µg/mL and an IC50, pseudovirus neutralization [19] greater than 50 µg/mL.
Substance 2G12 (antibody) has a neutralization IC50 [4] of 0.75 µg/mL, an IC50 (µg/ml), pseudovirus neutralization [5] greater than 50 µg/mL and an IC50 (µg/ml), pseudovirus neutralization [6] of 4.39 µg/mL. The IC50 (µg/ml), pseudovirus neutralization [7] was 0.84 µg/mL, the IC50 [8] was greater than 50 µg/mL and the IC50 (µg/ml), pseudovirus neutralization [9] was greater than 50 µg/mL. For the same substance, the IC50 (µg/ml), pseudovirus neutralization [10] was greater than 50 µg/mL, the IC50 (µg/ml), pseudovirus neutralization [11] was 0.06 µg/mL and the IC50 (µg/ml), pseudovirus neutralization [12] was 0.48 µg/mL. The IC50 (µg/ml), pseudovirus neutralization [13] was greater than 50 µg/mL and the IC50 (µg/ml), pseudovirus neutralization [14] was greater than 50 µg/mL.
Work on 1443_C16 (PG16) (TCN-116) (antibody) yielded a neutralization IC50 [4] of less than 0.0025 µg/mL, an IC50 (µg/ml), pseudovirus neutralization [5] of 0.02 µg/mL and an IC50 (µg/ml), pseudovirus neutralization [6] greater than 50 µg/mL. The IC50 (µg/ml), pseudovirus neutralization [7] was 1.13 µg/mL, the IC50 [8] was greater than 50 µg/mL and the IC50 (µg/ml), pseudovirus neutralization [9] was 0.25 µg/mL. For the same substance, the IC50 (µg/ml), pseudovirus neutralization [10] was 0.002 µg/mL, the IC50 (µg/ml), pseudovirus neutralization [11] was 0.19 µg/mL and the IC50 (µg/ml), pseudovirus neutralization [12] was 0.28 µg/mL. For the same substance, the IC50 (µg/ml), pseudovirus neutralization [13] was greater than 50 µg/mL and the IC50 (µg/ml), pseudovirus neutralization [14] was 0.01 µg/mL.
Work on 4980_N08 (PGT-143) (antibody) yielded an IC50 (µg/mL), pseudovirus neutralization [1] of 4.77 µg/mL, an IC50, pseudovirus neutralization [2] of 0.01 µg/mL and an IC50 (µg/mL), pseudovirus neutralization [3] greater than 50 µg/mL.
PGT-142 (4995_E20) (antibody) showed an IC50 [15] of 0.081 µg/mL, an IC50, pseudovirus neutralization [16] greater than 50 µg/mL and an IC50, pseudovirus neutralization [17] greater than 50 µg/mL. It also gave an IC50 [18] of 21.7 µg/mL and an IC50, pseudovirus neutralization [19] greater than 50 µg/mL.
In the case of 5147_N06 (PGT-130) (antibody), the IC50 (µg/mL), pseudovirus neutralization [20] is reported as greater than 50 µg/mL, the IC50 (µg/mL), pseudovirus neutralization [21] is reported as greater than 50 µg/mL and the Fold IC50 increase relative to wild-type (pseudovirus neutralization) [22] is reported as 1.7 fold. It also gave an IC50 (µg/mL), pseudovirus neutralization [23] greater than 50 µg/mL, an IC50, pseudovirus neutralization [24] of 0.0052 µg/mL and an IC50 (ug/mL), pseudovirus neutralization [25] of 0.947 µg/mL. The Fold IC50 increase relative to wild-type (pseudovirus neutralization) [26] was 1.2 fold, the IC50, pseudovirus neutralization [27] was 0.308 µg/mL and the IC50, pseudovirus neutralization [28] was greater than 50 µg/mL. For the same substance, the IC50, pseudovirus neutralization [29] was 0.009 µg/mL, the IC50, pseudovirus neutralization [30] was 0.0173 µg/mL and the IC50, pseudovirus neutralization [31] was 0.0089 µg/mL. The IC50 (µg/mL), pseudovirus neutralization [32] was greater than 50 µg/mL, the IC50, pseudovirus neutralization [33] was 0.127 µg/mL and the IC50, pseudovirus neutralization [34] was greater than 50 µg/mL. It also gave an IC50 (µg/mL), pseudovirus neutralization [35] of 11.8 µg/mL, an IC50, pseudovirus neutralization [36] greater than 50 µg/mL and an IC50, pseudovirus neutralization [37] of 0.0378 µg/mL. For the same substance, the IC50 (µg/mL), pseudovirus neutralization [38] was 0.651 µg/mL, the IC50, pseudovirus neutralization [39] was 0.0182 µg/mL and the IC50 (µg/mL), pseudovirus neutralization [40] was 0.019 µg/mL. The IC50, pseudovirus neutralization [41] was 0.008 µg/mL.
Substance 4993_K13 (PGT-141) (antibody) has an IC50 (µg/mL), pseudovirus neutralization [1] of 20.3 µg/mL, an IC50, pseudovirus neutralization [2] of 0.022 µg/mL and an IC50 (µg/mL), pseudovirus neutralization [3] greater than 50 µg/mL.

Source: patent publication US20240132578A1
